Measured values published in US20170015742A1 (published 2017).
Residue numbers refer to the chain shown, from its start. In names and notes the source's numbering stands.

B1: 9E8.4E-LS-9A8.12 (PR-1577550) (bispecific antibody, human IgG1, kappa, L234A L235A)
heavy: EVTLRESGPALVKPTQTLTLTCTFSGFSLSTYGMGVGWIRQPPGKALEWLANIWWDDDKYYNPSLKNRLTISKDTSKNQVVLTMTNMDPVDTATYYCARIESIGTTYSFDYWGQGTMVTVSSASTKGPSVFPLAPEVQLVQSGAEVKKPGASVKVSCKASGYTFTNYGMYWVRQAPGQGLEWMGWINTETGKPIYADDFKGRVTMTTDTSTSTAYMELRSLRSDDTAVYYCARVDYDGSFWFAYWGQGTLVTVSSASTKGPSVFPLAPSSKSTSGGTAALGCLVKDYFPEPVTVSWNSGALTSGVHTFPAVLQSSGLYSLSSVVTVPSSSLGTQTYICNVNHKPSNTKVDKKVEPKSCDKTHTCPPCPAPEAAGGPSVFLFPPKPKDTLMISRTPEVTCVVVDVSHEDPEVKFNWYVDGVEVHNAKTKPREEQYNSTYRVVSVLTVLHQDWLNGKEYKCKVSNKALPAPIEKTISKAKGQPREPQVYTLPPSREEMTKNQVSLTCLVKGFYPSDIAVEWESNGQPENNYKTTPPVLDSDGSFFLYSKLTVDKSRWQQGNVFSCSVMHEALHNAYTQKSLSLSPGK
light: EFVLTQSPGTLSLSPGERATLSCERSSGDIGESYVSWYQQKPGQAPRLVIYADDQRPSGIPDRFSGSGSGTDFTLTISRLEPEDFAVYYCQSYDINIDIVFGGGTKVEIKRTVAAPDTQLTQSPSSLSASVGDRVTITCRASESVSTVIHWYQQKPGKQPKLLIHGASNLESGVPSRFSGSGSGTDFTLTISSLQPEDFATYFCQQHWNDPPTFGQGTKLEIKRTVAAPSVFIFPPSDEQLKSGTASVVCLLNNFYPREAKVQWKVDNALQSGNSQESVTEQDSKDSTYSLSSTLTLSKADYEKHKVYACEVTHQGLSSPVTKSFNRGEC
notes: DVD-Ig: outer hBDI-9E8.4E (PDGF), inner hBEW-9A8.12 (VEGF), linkers HG-long/LK-short; Human IgG1 L234A, L235A, H435A with kappa
B2: CL-34565_GS_CL-33675 (PR-1613183) (bispecific antibody, human IgG1, kappa, L234A L235A)
heavy: EVQLVQSGSELKKPGASVKVSCKASGYTFTDYGMYWVRQAPGQGLEWMGWIDTETGDPTYADDFKGRFVFSLDTSVSTAYLQISSLKAEDTAVYYCARTNYYYRNYMFYFDYWGQGTMVTVSSGGGGSGGGGSEVTLRESGPALVKPTQTLTLTCTFSGFSLSTYGMGVGWIRQPPGKALEWLANIWWDDDKYYNPSLKNRLTISKDTSKNQVVLTMTNMDPVDTATYYCARIESSGPKYSFDYWGQGTMVTVSSASTKGPSVFPLAPSSKSTSGGTAALGCLVKDYFPEPVTVSWNSGALTSGVHTFPAVLQSSGLYSLSSVVTVPSSSLGTQTYICNVNHKPSNTKVDKKVEPKSCDKTHTCPPCPAPEAAGGPSVFLFPPKPKDTLMISRTPEVTCVVVDVSHEDPEVKFNWYVDGVEVHNAKTKPREEQYNSTYRVVSVLTVLHQDWLNGKEYKCKVSNKALPAPIEKTISKAKGQPREPQVYTLPPSREEMTKNQVSLTCLVKGFYPSDIAVEWESNGQPENNYKTTPPVLDSDGSFFLYSKLTVDKSRWQQGNVFSCSVMHEALHNAYTQKSLSLSPGK
light: EIVLTQSPATLSLSPGERATLFCRASQSVSNHMHWYQQKPGQAPRLLIYGASILESGVPARFSGSGSGTDFTLTISSLEPEDFAVYYCQQSWYDPITFGQGTKLEIKGGSGGGGSGGEIVLTQSPGTLSLSPGERATLSCRASSGSIWYSFVSWYQQKPGQAPRLLIYADDQRASGIPDRFSGSGSGTDFTLTISRLEPEDFAVYYCQSYGINIDVVFGGGTKVEIKRTVAAPSVFIFPPSDEQLKSGTASVVCLLNNFYPREAKVQWKVDNALQSGNSQESVTEQDSKDSTYSLSSTLTLSKADYEKHKVYACEVTHQGLSSPVTKSFNRGEC
notes: DVD-Ig: outer CL-34565 (VEGF), inner CL-33675 (PDGF), linkers GS-H10/GS-L10(dR); Human IgG1 L234A, L235A, H435A with kappa
B3: CL-34565_GS_9E8.4 (PR-1613184) (bispecific antibody, human IgG1, kappa, L234A L235A)
heavy: B2 heavy with S236I, P238T, K239T
light: EIVLTQSPATLSLSPGERATLFCRASQSVSNHMHWYQQKPGQAPRLLIYGASILESGVPARFSGSGSGTDFTLTISSLEPEDFAVYYCQQSWYDPITFGQGTKLEIKGGSGGGGSGGEFVLTQSPGTLSLSPGERATLSCERSSGDIGDSYVSWYQQKPGQAPRLVIYADDQRPSGIPDRFSGSGSGTDFTLTISRLEPEDFAVYYCQSYDINIDIVFGGGTKVEIKRTVAAPSVFIFPPSDEQLKSGTASVVCLLNNFYPREAKVQWKVDNALQSGNSQESVTEQDSKDSTYSLSSTLTLSKADYEKHKVYACEVTHQGLSSPVTKSFNRGEC
notes: DVD-Ig: outer CL-34565 (VEGF), inner hBDI-9E8.4 (PDGF), linkers GS-H10/GS-L10(dR); Human IgG1 L234A, L235A, H435A with kappa
B4: 9E8.4E-SL-9A8.12 (PR-1577548) (bispecific antibody, human IgG1, kappa, L234A L235A)
heavy: EVTLRESGPALVKPTQTLTLTCTFSGFSLSTYGMGVGWIRQPPGKALEWLANIWWDDDKYYNPSLKNRLTISKDTSKNQVVLTMTNMDPVDTATYYCARIESIGTTYSFDYWGQGTMVTVSSASTKGPEVQLVQSGAEVKKPGASVKVSCKASGYTFTNYGMYWVRQAPGQGLEWMGWINTETGKPIYADDFKGRVTMTTDTSTSTAYMELRSLRSDDTAVYYCARVDYDGSFWFAYWGQGTLVTVSSASTKGPSVFPLAPSSKSTSGGTAALGCLVKDYFPEPVTVSWNSGALTSGVHTFPAVLQSSGLYSLSSVVTVPSSSLGTQTYICNVNHKPSNTKVDKKVEPKSCDKTHTCPPCPAPEAAGGPSVFLFPPKPKDTLMISRTPEVTCVVVDVSHEDPEVKFNWYVDGVEVHNAKTKPREEQYNSTYRVVSVLTVLHQDWLNGKEYKCKVSNKALPAPIEKTISKAKGQPREPQVYTLPPSREEMTKNQVSLTCLVKGFYPSDIAVEWESNGQPENNYKTTPPVLDSDGSFFLYSKLTVDKSRWQQGNVFSCSVMHEALHNAYTQKSLSLSPGK
light: EFVLTQSPGTLSLSPGERATLSCERSSGDIGESYVSWYQQKPGQAPRLVIYADDQRPSGIPDRFSGSGSGTDFTLTISRLEPEDFAVYYCQSYDINIDIVFGGGTKVEIKRTVAAPSVFIFPPDTQLTQSPSSLSASVGDRVTITCRASESVSTVIHWYQQKPGKQPKLLIHGASNLESGVPSRFSGSGSGTDFTLTISSLQPEDFATYFCQQHWNDPPTFGQGTKLEIKRTVAAPSVFIFPPSDEQLKSGTASVVCLLNNFYPREAKVQWKVDNALQSGNSQESVTEQDSKDSTYSLSSTLTLSKADYEKHKVYACEVTHQGLSSPVTKSFNRGEC
notes: DVD-Ig: outer hBDI-9E8.4E (PDGF), inner hBEW-9A8.12 (VEGF), linkers HG-short/LK-long; Human IgG1 L234A, L235A, H435A with kappa
B5: 9E8.4E-GS-9A8.12 (PR-1578137) (bispecific antibody, human IgG1, kappa, L234A L235A)
heavy: EVTLRESGPALVKPTQTLTLTCTFSGFSLSTYGMGVGWIRQPPGKALEWLANIWWDDDKYYNPSLKNRLTISKDTSKNQVVLTMTNMDPVDTATYYCARIESIGTTYSFDYWGQGTMVTVSSGGGGSGGGGSEVQLVQSGAEVKKPGASVKVSCKASGYTFTNYGMYWVRQAPGQGLEWMGWINTETGKPIYADDFKGRVTMTTDTSTSTAYMELRSLRSDDTAVYYCARVDYDGSFWFAYWGQGTLVTVSSASTKGPSVFPLAPSSKSTSGGTAALGCLVKDYFPEPVTVSWNSGALTSGVHTFPAVLQSSGLYSLSSVVTVPSSSLGTQTYICNVNHKPSNTKVDKKVEPKSCDKTHTCPPCPAPEAAGGPSVFLFPPKPKDTLMISRTPEVTCVVVDVSHEDPEVKFNWYVDGVEVHNAKTKPREEQYNSTYRVVSVLTVLHQDWLNGKEYKCKVSNKALPAPIEKTISKAKGQPREPQVYTLPPSREEMTKNQVSLTCLVKGFYPSDIAVEWESNGQPENNYKTTPPVLDSDGSFFLYSKLTVDKSRWQQGNVFSCSVMHEALHNAYTQKSLSLSPGK
light: EFVLTQSPGTLSLSPGERATLSCERSSGDIGESYVSWYQQKPGQAPRLVIYADDQRPSGIPDRFSGSGSGTDFTLTISRLEPEDFAVYYCQSYDINIDIVFGGGTKVEIKRGGSGGGGSGDTQLTQSPSSLSASVGDRVTITCRASESVSTVIHWYQQKPGKQPKLLIHGASNLESGVPSRFSGSGSGTDFTLTISSLQPEDFATYFCQQHWNDPPTFGQGTKLEIKRTVAAPSVFIFPPSDEQLKSGTASVVCLLNNFYPREAKVQWKVDNALQSGNSQESVTEQDSKDSTYSLSSTLTLSKADYEKHKVYACEVTHQGLSSPVTKSFNRGEC
notes: DVD-Ig: outer hBDI-9E8.4E (PDGF), inner hBEW-9A8.12 (VEGF), linkers GS-H10/GS-L10; Human IgG1 L234A, L235A, H435A with kappa
B6: 9A8.12-LS-9E8.4E (PR-1577547) (bispecific antibody, human IgG1, kappa, L234A L235A)
heavy: EVQLVQSGAEVKKPGASVKVSCKASGYTFTNYGMYWVRQAPGQGLEWMGWINTETGKPIYADDFKGRVTMTTDTSTSTAYMELRSLRSDDTAVYYCARVDYDGSFWFAYWGQGTLVTVSSASTKGPSVFPLAPEVTLRESGPALVKPTQTLTLTCTFSGFSLSTYGMGVGWIRQPPGKALEWLANIWWDDDKYYNPSLKNRLTISKDTSKNQVVLTMTNMDPVDTATYYCARIESIGTTYSFDYWGQGTMVTVSSASTKGPSVFPLAPSSKSTSGGTAALGCLVKDYFPEPVTVSWNSGALTSGVHTFPAVLQSSGLYSLSSVVTVPSSSLGTQTYICNVNHKPSNTKVDKKVEPKSCDKTHTCPPCPAPEAAGGPSVFLFPPKPKDTLMISRTPEVTCVVVDVSHEDPEVKFNWYVDGVEVHNAKTKPREEQYNSTYRVVSVLTVLHQDWLNGKEYKCKVSNKALPAPIEKTISKAKGQPREPQVYTLPPSREEMTKNQVSLTCLVKGFYPSDIAVEWESNGQPENNYKTTPPVLDSDGSFFLYSKLTVDKSRWQQGNVFSCSVMHEALHNAYTQKSLSLSPGK
light: DTQLTQSPSSLSASVGDRVTITCRASESVSTVIHWYQQKPGKQPKLLIHGASNLESGVPSRFSGSGSGTDFTLTISSLQPEDFATYFCQQHWNDPPTFGQGTKLEIKRTVAAPEFVLTQSPGTLSLSPGERATLSCERSSGDIGESYVSWYQQKPGQAPRLVIYADDQRPSGIPDRFSGSGSGTDFTLTISRLEPEDFAVYYCQSYDINIDIVFGGGTKVEIKRTVAAPSVFIFPPSDEQLKSGTASVVCLLNNFYPREAKVQWKVDNALQSGNSQESVTEQDSKDSTYSLSSTLTLSKADYEKHKVYACEVTHQGLSSPVTKSFNRGEC
notes: DVD-Ig: outer hBEW-9A8.12 (VEGF), inner hBDI-9E8.4E (PDGF), linkers HG-long/LK-short; Human IgG1 L234A, L235A, H435A with kappa

Target: T1, VEGF-A (human, UniProt P15692 207-395)
T1 construct: also called hVEGF165
Test: Biacore SPR; DVD-Ig captured on anti-human Fc, antigen injected
Protocol: (§1) For example, approximately 9000 RU of goat anti-human Fc specific polyclonal antibody (Thermo Fisher Scientific Inc., Rockford, Ill.) diluted in 10 mM sodium acetate (pH 4.5) is directly immobilized across a CM5 research grade biosensor chip using a standard amine coupling kit according to manufacturer's instructions and procedures at 25 μg/ml. Unreacted moieties on the biosensor surface were blocked with ethanolamine. For kinetic analysis, rate equations derived from the 1:1 Langmuir binding model were fitted simultaneously to multiple antigen injections (using global fit analysis) with the use of Scrubber 2 (BioLogic Software), Biacore Biaevaluation 4.0.1 software or Biacore T100 Evaluation software. Purified antibodies or DVD-Ig molecules were diluted in running buffer for capture across goat anti-human Fc reaction surfaces. Antibodies or DVD-Ig molecules to be captured as a ligand (1 μg/ml) were injected over reaction matrices at a flow rate of 10 μl/minute. During the assay, all measurements were referenced against the capture surface alone (i.e., with no captured antibody or DVD-Ig molecule). […] The equilibrium dissociation constant KD (M) of the reaction between antibodies and the target antigen was then calculated from the kinetic rate constants by the following formula: KD=Koff/Kₒₙ. Binding was recorded as a function of time and kinetic rate constants were calculated.

T1 sequence (P15692 other isoform, or with tags, fused parts or gaps limits assumed): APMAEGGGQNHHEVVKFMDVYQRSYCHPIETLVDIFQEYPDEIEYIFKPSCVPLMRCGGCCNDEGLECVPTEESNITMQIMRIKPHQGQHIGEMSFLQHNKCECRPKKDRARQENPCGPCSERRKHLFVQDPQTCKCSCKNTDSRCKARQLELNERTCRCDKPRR

Kd [pM]	kon [M⁻¹ s⁻¹]	Binder
230	640000	B1
1.7	1.2e+07	B2
1.1	1.5e+07	B3
160	2.2e+06	B4
380	470000	B5
350	270000	B6

Target: T2, PDGF-BB (human, UniProt P01127 82-190, limits assumed)
T2 construct: also called human PDGF-BB; hPDGF-BB
Test: as above
Protocol: as §1

T2 sequence (P01127 82-190 limits assumed): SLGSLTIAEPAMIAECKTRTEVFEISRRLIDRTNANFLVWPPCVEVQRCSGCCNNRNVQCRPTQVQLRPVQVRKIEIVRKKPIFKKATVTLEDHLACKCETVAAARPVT

Kd [pM]	kon [M⁻¹ s⁻¹]	Binder
5	5e+07	B1
0.19	6e+07	B2
5.4	3.5e+07	B3
6.4	5e+07	B4
8.8	5e+07	B5
6.5	3.6e+07	B6
